Source: publication PMC9365698, “A physical wiring diagram for the human immune system” (Nature, 2022)

Legend:
Test in all cases: SAVEXIS (scalable arrayed multi-valent extracellular interaction screen); biotinylated bait (100 fmol per well) captured on streptavidin-coated 384-well plates; prey multimerised on streptavidin-HRP (25 fmol protein with 6.25 fmol SAV-HRP); 60 min at 20 °C in 2% BSA in HBS pH 7.4 (1 mM MgCl2, 2 mM CaCl2); desthiobiotin washes; TMB absorbance at 650 nm; both bait-prey orientations; primary and secondary screen
Settings in all cases: both partners purified
PVR = molecular target: T1, PVR (human, UniProt P15151 21-343, biotin on the biotin-acceptor site (enzymatic, co-transfected BirA))
T1 construct: PVR (poliovirus receptor), human, full ectodomain
T1 sequence (looked up): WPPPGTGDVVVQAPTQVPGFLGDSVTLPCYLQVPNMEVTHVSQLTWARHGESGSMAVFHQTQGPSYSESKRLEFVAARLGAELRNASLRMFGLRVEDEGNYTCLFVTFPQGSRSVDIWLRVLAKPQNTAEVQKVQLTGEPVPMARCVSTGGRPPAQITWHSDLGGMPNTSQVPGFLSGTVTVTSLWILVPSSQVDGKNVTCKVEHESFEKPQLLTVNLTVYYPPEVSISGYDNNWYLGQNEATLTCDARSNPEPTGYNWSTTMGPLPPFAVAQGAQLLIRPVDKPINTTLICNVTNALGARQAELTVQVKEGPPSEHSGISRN

JAG1 = molecular target: T2, JAG1 (human, UniProt P78504 34-1067, biotin on the biotin-acceptor site (enzymatic, co-transfected BirA))
T2 construct: JAG1 (Jagged-1), human, full ectodomain; also called Jagged ligands

[1] = molecular target: T3, Plasmodium falciparum P41 protein (Plasmodium falciparum, UniProt Q8I1Y0 21-378)
T3 construct: P41 protein of Plasmodium falciparum; P41 was the bait in two control wells of every screening plate
T3 sequence: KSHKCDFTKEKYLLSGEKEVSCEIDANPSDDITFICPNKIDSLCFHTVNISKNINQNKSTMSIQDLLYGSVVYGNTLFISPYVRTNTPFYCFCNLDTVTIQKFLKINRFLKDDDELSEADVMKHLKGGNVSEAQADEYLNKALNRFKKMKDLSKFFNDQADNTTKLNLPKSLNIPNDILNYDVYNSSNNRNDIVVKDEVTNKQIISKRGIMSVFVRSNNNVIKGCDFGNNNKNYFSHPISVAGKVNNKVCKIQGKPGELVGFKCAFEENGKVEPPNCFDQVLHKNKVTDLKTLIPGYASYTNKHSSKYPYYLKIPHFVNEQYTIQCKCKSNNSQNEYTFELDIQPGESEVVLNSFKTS

B1: KIR2DL5A (receptor, human, UniProt Q8N109 22-238, looked up)
chain: HEGGQDKPLLSAWPSAVVPRGGHVTLLCRSRLGFTIFSLYKEDGVPVPELYNKIFWKSILMGPVTPAHAGTYRCRGSHPRSPIEWSAPSNPLVIVVTGLFGKPSLSAQPGPTVRTGENVTLSCSSRSSFDMYHLSREGRAHEPRLPAVPSVNGTFQADFPLGPATHGGTYTCFGSLHDSPYEWSDPSDPLLVSVTGNSSSSSSSPTEPSSKTGIRRH
modifications: biotin on the biotin-acceptor site (enzymatic, co-transfected BirA)
notes: KIR2DL5A, human, full ectodomain
binding result (PVR): binds

B2: VASN (receptor, human, UniProt Q6EMK4 24-575, looked up)
chain: CPSGCQCSQPQTVFCTARQGTTVPRDVPPDTVGLYVFENGITMLDAGSFAGLPGLQLLDLSQNQIASLPSGVFQPLANLSNLDLTANRLHEITNETFRGLRRLERLYLGKNRIRHIQPGAFDTLDRLLELKLQDNELRALPPLRLPRLLLLDLSHNSLLALEPGILDTANVEALRLAGLGLQQLDEGLFSRLRNLHDLDVSDNQLERVPPVIRGLRGLTRLRLAGNTRIAQLRPEDLAGLAALQELDVSNLSLQALPGDLSGLFPRLRLLAAARNPFNCVCPLSWFGPWVRESHVTLASPEETRCHFPPKNAGRLLLELDYADFGCPATTTTATVPTTRPVVREPTALSSSLAPTWLSPTEPATEAPSPPSTAPPTVGPVPQPQDCPPSTCLNGGTCHLGTRHHLACLCPEGFTGLYCESQMGQGTRPSPTPVTPRPPRSLTLGIEPVSPTSLRVGLQRYLQGSSVQLRSLRLTYRNLSGPDKRLVTLRLPASLAEYTVTQLRPNATYSVCVMPLGPGRVPEGEEACGEAHTPPAVHSNHAPVTQAREGNLP
modifications: biotin on the biotin-acceptor site (enzymatic, co-transfected BirA)
notes: VASN (vasorin), human, full ectodomain; also called vasorin
binding result (JAG1): binds

B3: Plasmodium falciparum P12 (natural protein)
chain: HKNLTCDFNDVYKLEFHPNQQTSVTKLCNLTPNVLEKVTIKCGSDKLNYNLYPPTCFEEVYASRNMMHLKKIKEFVIGSSMFMRRSLTPNKINEVSFRIPPNMMPEKPIYCFCENKKTITINGSNGNPSSKKDIINRGIVEIIIPSLNEKVKGCDFTTSESTIFSKGYSINEISNKSSNNQQDIVCTVKAHANDLIGFKCPSNYSVEPHDCFVSAFNLSGKNENLENKLKLTNIIMDHYNNTFYSRLPSLISDNWKFFCVCSKDNEKKLVFTVEASISSSNTKLASRDNTYQDYISN
notes: P12 protein of Plasmodium falciparum; P12 was presented as a prey (multimerised on streptavidin-HRP) for the positive control
binding result [1]: binds
